Test results from patent US20240125793A1.
pKd: −log10 of the molar value.

Key:
5c1-I-E^k (murine) [1] = target: 5c1-I-E^k (murine) (UniProt P04224); test: cell-based or functional assay
[2] = target: MCC-I-E^k (soluble I-Ek exchanged with the MCC peptide) (murine) (UniProt P04224); test: cell-based or functional assay
5c1-I-E^k (murine) [3] = target: 5c1-I-E^k (murine) (UniProt P04224); test: SPR (Biacore T100), refolded TCR over peptide-exchanged biotinylated I-Ek on SA chip, equilibrium
5c3-I-E^k (murine) = 5c3-I-E^k (murine) (UniProt P04224); test: as above
[4] = target: MCC-I-E^k (soluble I-Ek exchanged with the MCC peptide) (murine) (UniProt P04224); test: as above

signaling potency (EC50) (5c1-I-E^k (murine) [1]): 1.5 µM | signaling potency (EC50) [2]: 0.0084 µM | pKd (5c1-I-E^k (murine) [3]): 3.94 | pKd (5c3-I-E^k (murine)): 4.21 | pKd [4]: 4.39
Substance: 5cc7 TCR
